The values below come from article PMC11931385, “Structural and functional analysis of cancer-associated missense variants in the retinoblastoma protein pocket domain” (The Journal of Biological Chemistry, 2025).

Substitutions are numbered along the chain they refer to. Numbers in names are those of the source. No end group written: not given here. TMR = tetramethyl rhodamine dye

Holding throughout (experiment): fluorescence polarisation; 25 °C; unlabeled Rb^P titrated against 1.5 nM TMR-E2F1^TD or 7.5 nM TMR-E7^LxCxE; 25 mM Tris pH 8.0, 200 mM NaCl, 1 mM DTT, 0.1% Tween-20; 2 min incubation; quadratic fit; apparent Kd for the variants, Kd for WT
Common to all, as to details: both partners purified
A general note: Polarisation of emitted light reports the rotation of a fluorescent probe.

One test has as its target T1, Rb^P M546I (human, UniProt P06400 380-788, M546I).
T1 construct: also called variant 25
T1 sequence (looked up): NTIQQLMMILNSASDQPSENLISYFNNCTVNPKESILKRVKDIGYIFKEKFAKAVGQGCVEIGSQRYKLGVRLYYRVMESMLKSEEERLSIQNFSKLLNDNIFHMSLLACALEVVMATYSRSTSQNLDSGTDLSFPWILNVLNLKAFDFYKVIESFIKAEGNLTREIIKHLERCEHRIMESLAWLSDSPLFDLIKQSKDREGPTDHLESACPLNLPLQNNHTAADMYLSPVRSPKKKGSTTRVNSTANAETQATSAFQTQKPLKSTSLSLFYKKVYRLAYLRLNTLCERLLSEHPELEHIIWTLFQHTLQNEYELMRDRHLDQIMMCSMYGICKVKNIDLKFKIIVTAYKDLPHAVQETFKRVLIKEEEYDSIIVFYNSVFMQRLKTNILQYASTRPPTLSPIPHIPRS

Another test deals with T2, Rb^P S474R (human, UniProt P06400 380-788, S474R).
T2 construct: also called variant 13
T2 sequence (looked up): T1 sequence (looked up) with S95R, I167M

The target of a further test is T3, Rb^P E539D (human, UniProt P06400 380-788, E539D).
T3 construct: also called variant 24
T3 sequence (looked up): T1 sequence (looked up) with E160D, I167M

In the next test the target is T4, Rb^P S751Y (human, UniProt P06400 380-788, S751Y).
T4 construct: also called variant 72
T4 sequence (looked up): T1 sequence (looked up) with I167M, S372Y

In the next test the target is T5, Rb^P T664A (human, UniProt P06400 380-788, T664A).
T5 construct: also called variant 50
T5 sequence (looked up): T1 sequence (looked up) with I167M, T285A

B1: TMR-E2F1^TD, peptide of the E2F1 transactivation domain (peptide)
peptide: {TMR}-GEGIRDLFDCDFGDLTPLD
notes: also called E2F^TD; source: synthetic peptide, bought: GenScript
For the molecule B1, the Kd with Rb^P M546I came out at 13 nM; with Rb^P S474R it was 365 nM; with Rb^P E539D, 55 nM; with Rb^P S751Y, 33 nM; with Rb^P T664A it was 15 nM.

B2: TMR-E7^LxCxE, LxCxE peptide of the E7 oncoprotein from HPV (peptide)
peptide: DLYCYEQLN
modifications: also: TMR label, position not given here
notes: source: synthetic peptide, bought: GenScript
Regarding B2, the Kd with Rb^P M546I is 7 nM; with Rb^P S474R it was 5 nM; with Rb^P E539D, 7 nM; in the test with Rb^P S751Y, 127 nM; in the test with Rb^P T664A, 8 nM.
